Where a chain is given by its changes, count along the chain named.
B1: suPAR_DB02_H06 (scFv, V domains shown)
VH: QVQLVQSGAEVKKPGASVKVSCKASGFNIKDYYIHWVRQAPGQGLEWMGWIDPEGGNTIYAQKFQGRVTMTRDTSTSTVYMELSSLRSEDTAVYYCARGYDVDWFVYWGQGTLVTVSS
VL: DIQMTQSPSSLSASVGDRVTITCRARSSVSYMYWYQQKPGKAPKLLIYRTSNLASGVPSRFSGSGSGTDFTLTISSLQPEDFATYYCQQYHSYPPTFGGGTKVEIK
notes: screened as scFv
B2: suPAR_DB03_C06 (scFv, V domains shown)
VH: B1 VH with F27Y, N28T, I29F, K30T, I34V, P53H, N57S, I59S, A61D
VL: B1 VL with R24S, R26S
notes: screened as scFv
B3: suPAR_DB03_C02 (scFv, V domains shown)
VH: B1 VH with F27Y, N28S, I29F, K30T, D31N, P53H, G55N, A61D, Y100N
VL: B1 VL with R24S
notes: screened as scFv
B4: suPAR_DB03_C08 (scFv, V domains shown)
VH: B1 VH with F27G, N28T, I29F, K30T, D31N, I34M, P53H, G55N, N57S
VL: B1 VL with R24S, N52S
notes: screened as scFv
B5: suPAR_DB03_A03 (scFv, V domains shown)
VH: QVQLVQSGAEVKKPGASVKVSCKASGYTFTGYYMHWVRQAPGQGLEWMGWIDHENGSTIYDQKFQGRVTMTRDTSTSTVYMELSSLRSEDTAVYYCAVGYDVDWFVYWGQGTLVTVSS
VL: B1 VL with R24S
notes: screened as scFv
B6: suPAR_DB03_D07 (scFv, V domains shown)
VH: B5 VH with Y27N, G31N, M34V, H53P, E54S, S57N, V98R
VL: B1 VL with R24S
notes: screened as scFv
B7: suPAR_DB03_C09 (scFv, V domains shown)
VH: B5 VH with G31S, V98R
VL: B1 VL with R24S, S27Q
notes: screened as scFv
B8: suPAR_DB03_C03 (scFv, V domains shown)
VH: B5 VH with I59S, V98S
VL: B1 VL with R24S, R49G, T50A, A54Q
notes: screened as scFv
B9: suPAR_DB03_B04 (scFv, V domains shown)
VH: B5 VH with M48I, D52T, H53P, E54D, N55S, S57G, I59V, D61A, V98R
VL: B1 VL with R24S, R26S, V29I
notes: screened as scFv
B10: suPAR_DB03_C12 (scFv, V domains shown)
VH: B5 VH with Y27N, G31N, S57N, I59S, V98R
VL: B1 VL with R24S
notes: screened as scFv
B11: suPAR_DB02_H09 (scFv, V domains shown)
VH: B5 VH with G31S, H53P, S57N, D61A, V98R, Y107F
VL: B1 VL with R24S, R49A, A54Q
notes: screened as scFv
B12: suPAR_DB03_D03 (scFv, V domains shown)
VH: B5 VH with M34I, H53P, S57N, D61A, V98R
VL: B1 VL with S27Q
notes: screened as scFv
B13: suPAR_DB02_H08 (scFv, V domains shown)
VH: B5 VH with M34I, H53P, V98R
VL: B1 VL with R24S
notes: screened as scFv
B14: suPAR_DB02_H10 (scFv, V domains shown)
VH: B5 VH with G31S, E54S, S57N, V98R
VL: B1 VL with R24S, S27Q
notes: screened as scFv
B15: suPAR_DB03_C04 (scFv, V domains shown)
VH: B1 VH with G55N, N57S, A61D
VL: B1 VL with R24S, R26S, V29I, N52S
notes: screened as scFv
B16: suPAR_DB03_B09 (scFv, V domains shown)
VH: B1 VH with F27Y, D31S, N57S, A61D
VL: B1 VL with R24S
notes: screened as scFv
B17: suPAR_DB03_B01 (scFv, V domains shown)
VH: B5 VH with Y27N, Y32H, H35Q, S57N, I59S, D61A, V98R
VL: B1 VL with R24S
notes: screened as scFv
B18: suPAR_DB03_B10 (scFv, V domains shown)
VH: B5 VH with S57N, V98R, Y100T
VL: B1 VL with R24S, R26S, V29I
notes: screened as scFv
B19: suPAR_DB03_C01 (scFv, V domains shown)
VH: B1 VH with F27S, N28T, I29S, K30T, Y32H, I34V, P53H, N57S
VL: B1 VL with R24S
notes: screened as scFv
B20: suPAR_DB03_C10 (scFv, V domains shown)
VH: B5 VH with G31S, N55G, D61A, V98S
VL: B1 VL with R24S
notes: screened as scFv
B21: suPAR_DB03_A08 (scFv, V domains shown)
VH: B5 VH with D61A, V98R
VL: B1 VL with R24S, R26S
notes: screened as scFv
B22: suPAR_DB03_D10 (scFv, V domains shown)
VH: B5 VH with G31S, H53P, S57N, D61A, V98R
VL: B1 VL with R24S, A54Q
notes: screened as scFv
B23: suPAR_DB03_D01 (scFv, V domains shown)
VH: B1 VH with I51M, E54N, G55S, N57G, I59N
VL: B1 VL with R24S
notes: screened as scFv
B24: suPAR_DB03_B08 (scFv, V domains shown)
VH: B5 VH with T28A, S57N, V98R
VL: B1 VL with S27Q
notes: screened as scFv
B25: suPAR_DB03_D02 (scFv, V domains shown)
VH: B5 VH with G31R, M34L, H53P, S57N, D61A, V98R
VL: B1 VL with R24S
notes: screened as scFv
B26: suPAR_DB03_D04 (scFv, V domains shown)
VH: B5 VH with G31N, H53P, V98R
VL: B1 VL with R24S, Y90S
notes: screened as scFv
B27: suPAR_DB03_A06 (scFv, V domains shown)
VH: B1 VH with K30T, G55N, N57S
VL: B1 VL with R24S, S27Q, V29I
notes: screened as scFv
B28: suPAR_DB03_D06 (scFv, V domains shown)
VH: B5 VH with T28S, G31N, S57N, I59S, D61A, V98R
VL: B1 VL with R24S
notes: screened as scFv
B29: suPAR_DB03_B02 (scFv, V domains shown)
VH: B5 VH with Y27D, G31S, I59S, V98R
VL: B1 VL with R24S
notes: screened as scFv
B30: suPAR_DB03_C07 (scFv, V domains shown)
VH: B5 VH with G31N, M34V, V98R
VL: B1 VL with R24S
notes: screened as scFv
B31: suPAR_DB03_A11 (scFv, V domains shown)
VH: B5 VH with G31S, M48V, I51M, H53P, E54N, N55S, S57G, I59S, D61A, V98R
VL: B1 VL with R24S
notes: screened as scFv
B32: suPAR_DB03_A09 (scFv, V domains shown)
VH: B5 VH with G31S, Y32H, M34V, E54S, V98R
VL: B1 VL with R24S, S27Q, V29I
notes: screened as scFv
B33: suPAR_DB03_D09 (scFv, V domains shown)
VH: B5 VH with D61A, V98R
VL: B1 VL with R24S, A54Q
notes: screened as scFv
B34: suPAR_DB03_A05 (scFv, V domains shown)
VH: B5 VH with T30S, G31S, S57N, D61A, V98R
VL: B1 VL with R24S, N52S
notes: screened as scFv
B35: suPAR_DB02_H07 (scFv, V domains shown)
VH: B5 VH with G31S, M34V, I51V, H53P, E54S, N55S, S57A, I59D, D61A, V98R
VL: B1 VL with R24S
notes: screened as scFv
B36: suPAR_DB03_B06 (scFv, V domains shown)
VH: B1 VH with F27Y, K30T, G55N, N57S, A61D
VL: B1 VL with R24S
notes: screened as scFv
B37: suPAR_DB03_D08 (scFv, V domains shown)
VH: B5 VH with H53P, V98R
VL: B1 VL with R24S, S27Q
notes: screened as scFv
B38: suPAR_DB03_A10 (scFv, V domains shown)
VH: B5 VH with T30S, G31N, D61A, V98R
VL: B1 VL with R24S
notes: screened as scFv
B39: suPAR_DB03_B05 (scFv, V domains shown)
VH: B5 VH with G31S, H53P, S57N, V98R, V102I
VL: B1 VL with R24S, S27Q
notes: screened as scFv
B40: suPAR_DB03_D05 (scFv, V domains shown)
VH: B1 VH with F27D, I29F, K30T, D31T, I34M, G55N
VL: B1 VL with R24S
notes: screened as scFv

target: T1, human soluble urokinase plasminogen activator receptor (hsuPAR) (human, UniProt Q03405 23-303, limits assumed); assay: BLI (Octet) off-rate screen of scFv clones
T1 construct: Target antigen of the off-rate screen; also called human suPAR; rhuPAR-His
T1 sequence (Q03405 23-303 limits assumed): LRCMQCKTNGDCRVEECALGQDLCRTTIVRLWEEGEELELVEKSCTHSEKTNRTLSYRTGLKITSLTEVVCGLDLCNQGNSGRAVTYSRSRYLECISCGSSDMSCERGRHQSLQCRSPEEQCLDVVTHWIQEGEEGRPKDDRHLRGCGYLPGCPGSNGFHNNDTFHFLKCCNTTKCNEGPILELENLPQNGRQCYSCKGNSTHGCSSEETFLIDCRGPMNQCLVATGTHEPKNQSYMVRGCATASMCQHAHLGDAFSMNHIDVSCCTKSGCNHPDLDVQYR

Row | koff [s⁻¹] | Binder
1 | 0.00305 | B1
2 | 0.00318 | B2
3 | 0.00534 | B3
4 | 0.00103 | B4
5 | 0.00199 | B5
6 | 0.00308 | B6
7 | 0.00103 | B7
8 | 0.00464 | B8
9 | 0.00197 | B9
10 | 0.00396 | B10
11 | 0.0338 | B11
12 | 0.00258 | B12
13 | 0.00485 | B13
14 | 0.00344 | B14
15 | 0.00301 | B15
16 | 0.00421 | B16
17 | 0.00297 | B17
18 | 0.004 | B18
19 | 0.00366 | B19
20 | 0.00452 | B20

Row | koff [s⁻¹] | Binder
21 | 0.000306 | B21
22 | 0.00527 | B22
23 | 0.00416 | B23
24 | 0.00133 | B24
25 | 0.00755 | B25
26 | 0.00325 | B26
27 | 0.00302 | B27
28 | 0.00295 | B28
29 | 0.0024 | B29
30 | 0.00166 | B30
31 | 0.00181 | B31
32 | 0.00132 | B32
33 | 0.000746 | B33
34 | 0.0026 | B34
35 | 0.00317 | B35
36 | 0.00352 | B36
37 | 0.00458 | B37
38 | 0.000838 | B38
39 | 0.00536 | B39
40 | 0.00482 | B40

target: T2, cynomolgus suPAR (cynomolgus, UniProt Q9GK78 23-303, limits assumed); assay: BLI (Octet) off-rate screen of scFv clones
T2 construct: Target antigen of the off-rate screen; also called cynomolgus uPAR; cynoPLAUR-His
T2 sequence (Q9GK78 23-303 limits assumed): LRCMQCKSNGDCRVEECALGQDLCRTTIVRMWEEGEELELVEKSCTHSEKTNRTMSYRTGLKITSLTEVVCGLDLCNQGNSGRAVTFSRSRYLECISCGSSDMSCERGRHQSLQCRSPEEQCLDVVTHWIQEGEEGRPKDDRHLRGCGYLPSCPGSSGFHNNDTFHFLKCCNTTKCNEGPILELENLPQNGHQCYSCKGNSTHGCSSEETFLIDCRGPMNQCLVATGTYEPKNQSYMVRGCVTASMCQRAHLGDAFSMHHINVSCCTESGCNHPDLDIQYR

Row | koff [s⁻¹] | Binder
41 | 0.000393 | B1
42 | 0.000189 | B2
43 | 0.000366 | B3
44 | 9.98e-05 | B4
45 | 0.000319 | B5
46 | 0.000163 | B6
47 | 3.75e-07 | B7
48 | 0.00108 | B8
49 | 4.52e-07 | B9
50 | 7.59e-05 | B10
51 | 0.00218 | B11
52 | 0.000156 | B12
53 | 0.000228 | B13
54 | 0.000189 | B14
55 | 4.37e-07 | B15
56 | 0.000126 | B16
57 | 0.000343 | B17
58 | 0.000138 | B18
59 | 0.000165 | B19
60 | 0.000301 | B20

Row | koff [s⁻¹] | Binder
61 | 0.000269 | B21
62 | 0.000286 | B22
63 | 8.49e-05 | B23
64 | 0.000226 | B24
65 | 0.000241 | B25
66 | 0.0059 | B26
67 | 6.32e-07 | B27
68 | 0.000388 | B28
69 | 0.000148 | B29
70 | 5.78e-05 | B30
71 | 7.99e-05 | B31
72 | 0.000254 | B32
73 | 0.000508 | B33
74 | 0.000259 | B34
75 | 0.00146 | B35
76 | 1.08e-05 | B36
77 | 0.000482 | B37
78 | 0.000685 | B38
79 | 0.000126 | B39
80 | 3.55e-05 | B40

— US20250215104A1 (WALDEN BIOSCIENCES, published 2025)
